Test results published in IntAct's records for PubMed 10376594.

B1: Caspase-9 (Homo sapiens), P55211 (parent)
chain: MDEADRRLLRRCRLRLVEELQVDQLWDALLSRELFRPHMIEDIQRAGSGSRRDQARQLIIDLETRGSQALPLFISCLEDTGQDMLASFLRTNRQAAKLSKPTLENLTPVVLRPEIRKPEVLRPETPRPVDIGSGGFGDVGALESLRGNADLAYILSMEPCGHCLIINNVNFCRESGLRTRTGSNIDCEKLRRRFSSLHFMVEVKGDLTAKKMVLALLELAQQDHGALDCCVVVILSHGCQASHLQFPGAVYGTDGCPVSVEKIVNIFNGTSCPSLGGKPKLFFIQACGGEQKDHGFEVASTSPEDESPGSNPEPDATPFQEGLRTFDQLDAISSLPTPSDIFVSYSTFPGFVSWRDPKSGSWYVETLDDIFEQWAHSEDLQSLLLRVANAVSVKGIYKQMPGCFNFLRKKLFFKTS
B2: Apoptotic protease-activating factor 1 (Homo sapiens), O14727 (parent)
chain: MDAKARNCLLQHREALEKDIKTSYIMDHMISDGFLTISEEEKVRNEPTQQQRAAMLIKMILKKDNDSYVSFYNALLHEGYKDLAALLHDGIPVVSSSSGKDSVSGITSYVRTVLCEGGVPQRPVVFVTRKKLVNAIQQKLSKLKGEPGWVTIHGMAGCGKSVLAAEAVRDHSLLEGCFPGGVHWVSVGKQDKSGLLMKLQNLCTRLDQDESFSQRLPLNIEEAKDRLRILMLRKHPRSLLILDDVWDSWVLKAFDSQCQILLTTRDKSVTDSVMGPKYVVPVESSLGKEKGLEILSLFVNMKKADLPEQAHSIIKECKGSPLVVSLIGALLRDFPNRWEYYLKQLQNKQFKRIRKSSSYDYEALDEAMSISVEMLREDIKDYYTDLSILQKDVKVPTKVLCILWDMETEEVEDILQEFVNKSLLFCDRNGKSFRYYLHDLQVDFLTEKNCSQLQDLHKKIITQFQRYHQPHTLSPDQEDCMYWYNFLAYHMASAKMHKELCALMFSLDWIKAKTELVGPAHLIHEFVEYRHILDEKDCAVSENFQEFLSLNGHLLGRQPFPNIVQLGLCEPETSEVYQQAKLQAKQEVDNGMLYLEWINKKNITNLSRLVVRPHTDAVYHACFSEDGQRIASCGADKTLQVFKAETGEKLLEIKAHEDEVLCCAFSTDDRFIATCSVDKKVKIWNSMTGELVHTYDEHSEQVNCCHFTNSSHHLLLATGSSDCFLKLWDLNQKECRNTMFGHTNSVNHCRFSPDDKLLASCSADGTLKLWDATSANERKSINVKQFFLNLEDPQEDMEVIVKCCSWSADGARIMVAAKNKIFLFDIHTSGLLGEIHTGHHSTIQYCDFSPQNHLAVVALSQYCVELWNTDSRSKVADCRGHLSWVHGVMFSPDGSSFLTSSDDQTIRLWETKKVCKNSAVMLKQEVDVVFQENEVMVLAVDHIRRLQLINGRTGQIDYLTEAQVSCCCLSPHLQYIAFGDENGAIEILELVNNRIFQSRFQHKKTVWHIQFTADEKTLISSSDDAEIQVWNWQLDKCIFLRGHQETVKDFRLLKNSRLLSWSFDGTVKVWNIITGNKEKDFVCHQGTVLSCDISHDATKFSSTSADKTAKIWSFDLLLPLHELRGHNGCVRCSAFSVDSTLLATGDDNGEIRIWNVSNGELLHLCAPLSEEGAATHGGWVTDLCFSPDGKMLISAGGYIKWWNVVTGESSQTFYTNGTNLKKIHVSPDFKTYVTVDNLGILYILQTLE

Variants of: B1
Settings: with apaf_human APAF1, O14727
In the case of MDEADRRLLRACRLRLVEELQVDQLWDALLSRELFRPHMIEDIQRAGSGSRRDQARQLIIDLETRGSQALPLFISCLEDTGQDMLASFLRTNRQAAKLSKPTLENLTPVVLRPEIRKPEVLRPETPRPVDIGSGGFGDVGALESLRGNADLAYILSMEPCGHCLIINNVNFCRESGLRTRTGSNIDCEKLRRRFSSLHFMVEVKGDLTAKKMVLALLELAQQDHGALDCCVVVILSHGCQASHLQFPGAVYGTDGCPVSVEKIVNIFNGTSCPSLGGKPKLFFIQACGGEQKDHGFEVASTSPEDESPGSNPEPDATPFQEGLRTFDQLDAISSLPTPSDIFVSYSTFPGFVSWRDPKSGSWYVETLDDIFEQWAHSEDLQSLLLRVANAVSVKGIYKQMPGCFNFLRKKLFFKTS [R11A], the “effect of a mutation on the interaction” value is reported as “decreasing interaction”. For MDEADRRLLRRCALRLVEELQVDQLWDALLSRELFRPHMIEDIQRAGSGSRRDQARQLIIDLETRGSQALPLFISCLEDTGQDMLASFLRTNRQAAKLSKPTLENLTPVVLRPEIRKPEVLRPETPRPVDIGSGGFGDVGALESLRGNADLAYILSMEPCGHCLIINNVNFCRESGLRTRTGSNIDCEKLRRRFSSLHFMVEVKGDLTAKKMVLALLELAQQDHGALDCCVVVILSHGCQASHLQFPGAVYGTDGCPVSVEKIVNIFNGTSCPSLGGKPKLFFIQACGGEQKDHGFEVASTSPEDESPGSNPEPDATPFQEGLRTFDQLDAISSLPTPSDIFVSYSTFPGFVSWRDPKSGSWYVETLDDIFEQWAHSEDLQSLLLRVANAVSVKGIYKQMPGCFNFLRKKLFFKTS [R13A], the “effect of a mutation on the interaction” value was “disrupting interaction”. For MDEADRRLLRRCRLRLVEELQVDQLWDALLSRELFRPHMIEDIQRAGSGSRADQARQLIIDLETRGSQALPLFISCLEDTGQDMLASFLRTNRQAAKLSKPTLENLTPVVLRPEIRKPEVLRPETPRPVDIGSGGFGDVGALESLRGNADLAYILSMEPCGHCLIINNVNFCRESGLRTRTGSNIDCEKLRRRFSSLHFMVEVKGDLTAKKMVLALLELAQQDHGALDCCVVVILSHGCQASHLQFPGAVYGTDGCPVSVEKIVNIFNGTSCPSLGGKPKLFFIQACGGEQKDHGFEVASTSPEDESPGSNPEPDATPFQEGLRTFDQLDAISSLPTPSDIFVSYSTFPGFVSWRDPKSGSWYVETLDDIFEQWAHSEDLQSLLLRVANAVSVKGIYKQMPGCFNFLRKKLFFKTS [R52A], the “effect of a mutation on the interaction” value was “decreasing interaction”. For MDEADRRLLRRCRLRLVEELQVDQLWDALLSRELFRPHMIEDIQRAGSGSRRDQAAQLIIDLETRGSQALPLFISCLEDTGQDMLASFLRTNRQAAKLSKPTLENLTPVVLRPEIRKPEVLRPETPRPVDIGSGGFGDVGALESLRGNADLAYILSMEPCGHCLIINNVNFCRESGLRTRTGSNIDCEKLRRRFSSLHFMVEVKGDLTAKKMVLALLELAQQDHGALDCCVVVILSHGCQASHLQFPGAVYGTDGCPVSVEKIVNIFNGTSCPSLGGKPKLFFIQACGGEQKDHGFEVASTSPEDESPGSNPEPDATPFQEGLRTFDQLDAISSLPTPSDIFVSYSTFPGFVSWRDPKSGSWYVETLDDIFEQWAHSEDLQSLLLRVANAVSVKGIYKQMPGCFNFLRKKLFFKTS [R56A], the “effect of a mutation on the interaction” value was “disrupting interaction”.

Variants of: B2
Settings: with casp9_human CASP9, P55211
For D27A, the “effect of a mutation on the interaction” value was “disrupting interaction”. With S31A the “effect of a mutation on the interaction” value was “decreasing interaction”. With E40A the “effect of a mutation on the interaction” value was “disrupting interaction”.
